± gives the standard error. For part of these data: Fewer inactive variants are shown than the library holds.
B1: glmS ribozyme (parent)
chain: AUAAAAGCGCCAGAACUACAGAAAUGUAGUUGACGAGGAGGAGGUUUAUCGAAUUUUCGGCGGAUGCCUCCAAA

Tests used:
Details in all cases: with glucosamine-6-phosphate
[1] = variants of: B1; experiment: kcat; higher = faster cleavage; RNA array
How it was run: (§1)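 Weighted Michaelis–Menten fits across concentrations supplied kcat and KM, based on kobs from one- or two-exponential decay fits to normalised per-tile medians. The data came from barcoded ribozyme variants transcribed in situ by E. coli RNA polymerase on sequenced MiSeq chips and tracked at 37 °C by a hybridised Cy3 probe. Glucosamine-6-phosphate (40 μM to 10 mM) in HEPES/KCl/Mg(OAc)2 buffer was flowed in.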

[2] = variants of: B1; experiment: KM; higher = weaker cofactor use; RNA array
How it was run: as §1

[3] = variants of: B1; experiment: self-cleavage kobs at 40 uM GlcN6P; higher = faster cleavage; RNA array
How it was run: as §1

[4] = variants of: B1; experiment: self-cleavage kobs at 160 uM GlcN6P; higher = faster cleavage; RNA array
How it was run: as §1

[5] = variants of: B1; experiment: self-cleavage kobs at 640 uM GlcN6P; higher = faster cleavage; RNA array
How it was run: as §1

[6] = variants of: B1; experiment: self-cleavage kobs at 2500 uM GlcN6P; higher = faster cleavage; RNA array
How it was run: as §1

[7] = variants of: B1; experiment: self-cleavage kobs at 10000 uM GlcN6P; higher = faster cleavage; RNA array
How it was run: as §1

| Variant | kcat [1] | KM [2] | self-cleavage kobs at 40 uM GlcN6P [3] | self-cleavage kobs at 160 uM GlcN6P [4] | self-cleavage kobs at 640 uM GlcN6P [5] | self-cleavage kobs at 2500 uM GlcN6P [6] | self-cleavage kobs at 10000 uM GlcN6P [7] |
| --- | --- | --- | --- | --- | --- | --- | --- |
| U30A U31C | 0.00588 ± 0.00051 s⁻¹ | 4300 ± 500 µM | 5.91e-05 ± 1.1e-05 s⁻¹ | 0.000203 ± 4.9e-05 s⁻¹ | 0.000754 ± 0.00011 s⁻¹ | 0.00197 ± 0.00041 s⁻¹ | 0.00423 ± 0.0006 s⁻¹ |
| A14G G40C | 0.0146 ± 0.0059 s⁻¹ |  | 0.000285 ± 5.8e-05 s⁻¹ | 0.000739 ± 0.0001 s⁻¹ | 0.00301 ± 0.00036 s⁻¹ | 0.00549 ± 0.00094 s⁻¹ | 0.0168 ± 0.0032 s⁻¹ |
| A42U C67A | 0.00217 ± 0.00044 s⁻¹ | 1400 ± 460 µM | 7.75e-05 ± 9.8e-06 s⁻¹ | 0.000151 ± 3.4e-05 s⁻¹ | 0.00067 ± 9.7e-05 s⁻¹ | 0.00183 ± 0.00029 s⁻¹ | 0.00183 ± 0.00019 s⁻¹ |
| G37A U45G | 0.00169 ± 0.00018 s⁻¹ | 2870 ± 530 µM |  | 8.96e-05 ± 3.2e-05 s⁻¹ | 0.000349 ± 6.9e-05 s⁻¹ | 0.000738 ± 0.00016 s⁻¹ | 0.00132 ± 0.00019 s⁻¹ |
| G37C A53U U69G | 3.72e-05 ± 1.7e-05 s⁻¹ |  |  |  | 3.81e-05 ± 1.9e-05 s⁻¹ | 6.4e-05 ± 2.4e-05 s⁻¹ |  |
| C67A C71G | 7.2e-05 ± 7e-06 s⁻¹ |  |  | 5.48e-05 ± 8.6e-06 s⁻¹ | 6.96e-05 ± 6.6e-06 s⁻¹ | 8.16e-05 ± 8.2e-06 s⁻¹ | 6e-05 ± 6.9e-06 s⁻¹ |
| U56A C58A | 0.00106 ± 0.00052 s⁻¹ |  |  | 3.2e-05 ± 1.1e-05 s⁻¹ | 0.000101 ± 1.3e-05 s⁻¹ | 0.000187 ± 2.3e-05 s⁻¹ | 0.000605 ± 5.6e-05 s⁻¹ |
| G35U C67G | 1.19e-05 ± 2.3e-06 s⁻¹ |  |  |  |  | < 1e-05 s⁻¹ |  |
| A39C A52U | 8.87e-05 ± 2.8e-06 s⁻¹ | 2380 ± 210 µM | < 1e-05 s⁻¹ |  | 1.71e-05 ± 7.8e-06 s⁻¹ | 4.62e-05 ± 6.1e-06 s⁻¹ | 7.13e-05 ± 7.2e-06 s⁻¹ |
| G38C C50U C61G | < 1e-05 s⁻¹ |  |  |  | < 1e-05 s⁻¹ |  |  |
| G40C U45G | 0.000791 ± 0.00034 s⁻¹ |  |  | 9.8e-05 ± 1.7e-05 s⁻¹ | 0.000646 ± 0.00013 s⁻¹ | 0.000445 ± 7.5e-05 s⁻¹ | 0.00114 ± 0.00025 s⁻¹ |
| U57G C58U | 2.34e-05 ± 1.1e-05 s⁻¹ |  | < 1e-05 s⁻¹ | < 1e-05 s⁻¹ |  |  |  |
| U30A A36G | < 1e-05 s⁻¹ |  | < 1e-05 s⁻¹ |  | < 1e-05 s⁻¹ |  |  |
| U45C A53G | 0.00416 ± 0.0017 s⁻¹ |  |  | 0.000134 ± 4.9e-05 s⁻¹ | 0.000905 ± 0.00016 s⁻¹ | 0.00188 ± 0.00042 s⁻¹ | 0.00291 ± 0.00074 s⁻¹ |
| C11A C61A | < 1e-05 s⁻¹ |  |  |  |  |  |  |
| G38A C71A | < 1e-05 s⁻¹ |  |  |  |  |  | < 1e-05 s⁻¹ |
| C16A U46G C70G | 2.12e-05 ± 3.1e-06 s⁻¹ |  |  |  |  |  |  |
| A52G C70G | 6.89e-05 ± 3.6e-06 s⁻¹ | 65.2 ± 26 µM |  | 5.53e-05 ± 1e-05 s⁻¹ | 5.76e-05 ± 1.2e-05 s⁻¹ | 6.23e-05 ± 7.9e-06 s⁻¹ | 7.2e-05 ± 6.7e-06 s⁻¹ |

Source: the supplement of paper PMC7125110
